Measured values: patent publication US7208311B2, “Catalytic domain of ADAM33 and methods of use thereof” (Schering Corporation, priority 2002, dated 2007)
Blank lines part the entries; values can stand above or below the molecule they belong to.

Legend:
ADAM33 [1] = molecular target: T1, ADAM33 (Homo sapiens, UniProt Q9BZ11); assay: MCF 12-mer peptide proteolysis assay (HPLC); assay type: biochemical; conditions: for ADAM33 activity in the presence of inhibitor: 1 mM inhibitor
T1 construct: made in house; host or cells: Drosophila melanogaster S2 cells
T1 sequence (Q9BZ11 204-409): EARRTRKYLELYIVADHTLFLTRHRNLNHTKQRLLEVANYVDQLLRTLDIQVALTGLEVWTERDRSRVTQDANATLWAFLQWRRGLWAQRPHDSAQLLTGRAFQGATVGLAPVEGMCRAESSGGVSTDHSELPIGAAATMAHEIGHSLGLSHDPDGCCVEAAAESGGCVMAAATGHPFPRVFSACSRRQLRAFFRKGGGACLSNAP
Procedure: A 12-mer peptide (i.e. Ac-LPPVAASSLNRD-NH2; SEQ ID NO: 48), derived from human mast-cell growth factor (accession number NP-038626) was synthesized as a substrate for ADAM33. Reactions were initiated by addition of 200 nM enzyme to appropriate amounts of substrate in assay buffer (25 mM HEPES, pH 7.5, 0.5 M NaCl, 0.1% n-octyl-β-D-glucoside), incubated at 22° C. for 2 h and subsequently quenched with 1% TFA. When inhibitors were evaluated, the enzyme and inhibitors were preincubated at 22° C. for 30 min prior to initiation of the assays. Substrate and products were separated by HPLC using a C-8 reverse phase column (Zobrax 3.5 μm, 4.6 mmD/5 cmL, Agilent, Palo Alto, Calif., 0.1% TFA acetonitrile/H2O). Elution was monitored at 214 nm, and peaks identified by mass spectroscopy. Initial rates of proteolysis were determined using reactions in which less than 10% of the substrate was consumed. kcat/Km values were calculated assuming the enzymes were 100% active.
Production of ADAM33 and mutants thereof were produced essentially as described in Example 1. Proteolytic assays and methods for determining catalytic rates are essentially as described in Examples 2 and 3.

ADAM33 [2] = molecular target: T1, ADAM33; assay: HPLC inhibition assay, ADAM33cat with KL-1 peptide substrate; assay type: biochemical; conditions: ADAM33cat 80 nM, KL-1 peptide 100 μM, 2 h RT
Procedure: The inhibition dissociation constants (Ki) for inhibitors were determined as follows: an HPLC assay was performed in the presence or absence of inhibitors for 2 h at RT using ADAM33cat (80 nM) and KL-1 peptide substrate (100 μM). For testing tissue inhibitor of metalloproteinases (TIMPs), ADAM33 and human TIMPs were pre-incubated for 1 h at RT. […] Initial velocities were calculated by dividing cleaved product over reaction time. The initial velocities were plotted as a function of inhibitor concentration. For tight binding inhibitors (IK682, TIMP-3), the apparent inhibitor dissociation constants (Ki app values) were calculated by fitting the curve to the following modified Morrison's equation: vi=vo{[(Eo−Io−Ki^app)^2+4 Ki^appEo]^1/2+(Eo−IoKI^app)}/2Eo where Ki^app=Ki(1+S/Km), vo is the uninhibited initial velocity, vi is the initial velocity in the presence of inhibitor at any given inhibitor concentration Io, and Eo is initial enzyme concentration. When the substrate concentration S<<Km, Ki^app is approximately equal to Ki.

ADAM33 [3] = molecular target: T1, ADAM33; assay: HPLC peptide substrate cleavage assay with ADAM33; assay type: biochemical; conditions: for cleavage site of peptide: identified by MALDI-TOF MS; for cleavage of peptide by ADAM33: peptide 50 μM, ADAM33 0.1–0.5 μM, 2 h RT
Procedure: (§1) The peptide substrate (50 μM) was incubated with or without ADAM33 (0.1–0.5 μM) in assay buffer (20 mM HEPES, pH 7.5, 0.5 M NaCl, 0.2 mg/ml bovine serum albumin (BSA)) for 2 hours (h) at room temperature (RT) in the presence or absence of various inhibitors [5 mM 1, 10-phenanthroline, or a protease inhibitor cocktail (2 μg/ml leupeptin, 0.4 μM benzamidine, 10 μg/ml soybean trypsin inhibitor and 0.5 mM iodoacetamide)]. The reaction was stopped by adding 10% trifluoroacetic acid (TFA) to a final concentration of 1% and samples were analyzed on Agilent HPLC model 1100 with C8 column. Solvents were: A, 0.1% TFA in water; B, 0.09% TFA in acetonitrile. A linear gradient from 2 to 42% B was run over 7 min at 1.5 ml/min and the eluate was monitored at 214 nm. The percentage of peptide cleavage was calculated using the peak area of the cleaved products divided by the sum of the peak areas of both the products and the remaining substrate. The cleavage sites of the peptide were identified by matrix-assisted laser-desorption/ionization time-of-flight (MALDI-TOF) mass spectrometry.
(§2) Specificity constants of peptide substrates, APP and KL-1, were obtained by using the HPLC assay described above. In brief, ADAM33cat (80 nM) was incubated with peptide substrate (30–2000 μM) in assay buffer for 10–60 min at RT. Reactions were timed to allow less than 15% turnover of the substrate. The initial cleavage velocities of the peptides were obtained by plotting cleaved product versus reaction time. The specificity constants, kcat/Km, were determined based on best fit of the data with the Michaelis-Menten equation when substrate concentration S<<Km.

[4] = substrate: CC(C)C[C@H](NC(=O)[C@H](CCCCN)NC(=O)[C@H](CCC(N)=O)NC(=O)[C@H](Cc1c[nH]cn1)NC(=O)[C@H](Cc1c[nH]cn1)NC(=O)[C@@H](NC(=O)[C@H](CCC(=O)O)NC(=O)[C@@H](N)Cc1ccc(O)cc1)C(C)C)C(=O)N[C@H](C(=O)N[C@@H](Cc1ccccc1)C(=O)O)C(C)C; assay: HPLC peptide substrate cleavage assay with ADAM33; assay type: biochemical, human; conditions: other: ADAM33cat 80 nM, turnover <15%; pH 7.5
Procedure: as §1, §2

[5] = substrate: CC(C)C[C@H](NC(=O)[C@H](CO)NC(=O)[C@H](CO)NC(=O)[C@H](C)NC(=O)[C@H](C)NC(=O)[C@@H](NC(=O)[C@@H]1CCCN1C(=O)[C@@H]1CCCN1)C(C)C)C(=O)N[C@@H](CCCNC(=N)N)C(=O)N[C@@H](CC(N)=O)C(=O)O; assay: HPLC peptide substrate cleavage assay with ADAM33; assay type: biochemical, human; conditions: other: ADAM33cat 80 nM, turnover <15%; pH 7.5
Procedure: as §1, §2

[6] = Thermal denaturation monitored by circular dichroism (220 nm); assay type: physicochemical
Procedure: The effect of CaCl2 on the stability of the ADAM33 N231Q catalytic domain as determined by thermal denaturation: The effect of the concentration of CaCl2 on the retention of the secondary structure of the ADAM33 N231 Q catalytic domain was monitored by circular dichroism (λ220 nm) as a function of temperature. A parallel study was performed replacing the CaCl2 with NaCl to control for the effect of the corresponding increase in ionic strength. The ADAM33 N231Q catalytic domain was purified as described above and then diluted to 0.2 mg/ml. The sample was then dialyzed against 25 mM Hepes, pH 7.5, 5% glycerol overnight. The temperature dependent protein denaturation was performed using a JASCO 810 spectropolarimeter under the following conditions: • Protein concentration: 0.2 mg/ml (based on a BioRad Protein Assay) • Cell length: 0.1 cm • Monitor wavelength: 220 nm • Temperature slope: 2° C./min • Measurement range: 20–80° C.

Molecule: c1cnc2c(c1)ccc1cccnc12 [1,10-phenanthroline]
- ADAM33 activity in the presence of inhibitor (ADAM33 [1]): completely abolished

Molecule: O=C(O)CN(CCN(CC(=O)O)CC(=O)O)CC(=O)O [EDTA]
- ADAM33 activity in the presence of inhibitor (ADAM33 [1]): completely abolished

B1: CAT domain: purified catalytic (protease) domain of human ADAM33 (protein)
chain: EARRTRKYLELYIVADHTLFLTRHRNLNHTKQRLLEVANYVDQLLRTLDIQVALTGLEVWTERDRSRVTQDANATLWAFLQWRRGLWAQRPHDSAQLLTGRAFQGATVGLAPVEGMCRAESSGGVSTDHSELPIGAAATMAHEIGHSLGLSHDPDGCCVEAAAESGGCVMAAATGHPFPRVFSACSRRQLRAFFRKGGGACLSNAPSGHHHHHH
- catalytic efficiency (ADAM33 [1]; MCF peptide substrate, estimated): 2.6±0.5)×10^2 M^−1 s^−1

B2: ADAM33 (Homo sapiens) (protein)
chain: EARRTRKYLELYIVADHTLFLTRHRNLNHTKQRLLEVANYVDQLLRTLDIQVALTGLEVWTERDRSRVTQDANATLWAFLQWRRGLWAQRPHDSAQLLTGRAFQGATVGLAPVEGMCRAESSGGVSTDHSELPIGAAATMAHEIGHSLGLSHDPDGCCVEAAAESGGCVMAAATGHPFPRVFSACSRRQLRAFFRKGGGACLSNAP
notes: made in house; host or cells: Drosophila melanogaster S2 cells
- Km [4]: 1000 ± 100 µM
- kcat [4]: 0.2 ± 0.1 s⁻¹
- kcat/Km [4]: (1.6±0.3)×10^2 M^−1 s^−1
- Km [5]: 3000 ± 100 µM
- kcat [5]: 0.7 ± 0.1 s⁻¹
- kcat/Km [5]: (2.6±0.5)×10^2 M^−1 s^−1

B3: ADAM33 N231Q: modified ADAM33 catalytic domain N231Q, SEQ ID NO: 8 with C-terminal Ser-Gly His6 Tag (protein)
chain: EARRTRKYLELYIVADHTLFLTRHRNLQHTKQRLLEVANYVDQLLRTLDIQVALTGLEVWTERDRSRVTQDANATLWAFLQWRRGLWAQRPHDSAQLLTGRAFQGATVGLAPVEGMCRAESSGGVSTDHSELPIGAAATMAHEIGHSLGLSHDPDGCCVEAAAESGGCVMAAATGHPFPRVFSACSRRQLRAFFRKGGGACLSNAP
modifications: C-terminal Ser-Gly His6 tag; homo sapiens
- Denaturation Temp. ([6]; CaCl2 0 mM): 43.5 °C
- ΔDenaturation Temp. ([6]; CaCl2 0 mM): 0.0 °C
- Denaturation Temp. ([6]; CaCl2 0.003 mM): 50.6 °C
- ΔDenaturation Temp. ([6]; CaCl2 0.003 mM): 7.1 °C
- Denaturation Temp. ([6]; CaCl2 0.03 mM): 52.9 °C
- ΔDenaturation Temp. ([6]; CaCl2 0.03 mM): 9.4 °C
- Denaturation Temp. ([6]; CaCl2 0.3 mM): 53.9 °C
- ΔDenaturation Temp. ([6]; CaCl2 0.3 mM): 10.4 °C
- Denaturation Temp. ([6]; CaCl2 0.5 mM): 56.9 °C
- ΔDenaturation Temp. ([6]; CaCl2 0.5 mM): 13.4 °C
- Denaturation Temp. ([6]; CaCl2 1.0 mM): 57.9 °C
- ΔDenaturation Temp. ([6]; CaCl2 1.0 mM): 14.4 °C
- Denaturation Temp. ([6]; CaCl2 2.5 mM): 60.6 °C
- ΔDenaturation Temp. ([6]; CaCl2 2.5 mM): 17.1 °C
- Denaturation Temp. ([6]; CaCl2 5.0 mM): 61.5 °C
- ΔDenaturation Temp. ([6]; CaCl2 5.0 mM): 18.0 °C
- Denaturation Temp. ([6]; CaCl2 10.0 mM): 63.3 °C
- ΔDenaturation Temp. ([6]; CaCl2 10.0 mM): 19.8 °C
- Denaturation Temp. ([6]; CaCl2 25.0 mM): 64.6 °C
- ΔDenaturation Temp. ([6]; CaCl2 25.0 mM): 21.1 °C
- Denaturation Temp. ([6]; CaCl2 50.0 mM): 65.6 °C
- ΔDenaturation Temp. ([6]; CaCl2 50.0 mM): 22.1 °C
- Denaturation Temp. ([6]; CaCl2 100.0 mM): 65.2 °C
- ΔDenaturation Temp. ([6]; CaCl2 100.0 mM): 21.7 °C

The next lines start with results.

- Ki (ADAM33 [2]): 2850 ± 152 nM
Molecule: CC(C)CC(CC(=O)NO)C(=O)N[C@H](C(=O)N[C@@H](C)C(=O)NCCN)C(C)(C)C (mixture of isomers) [Immunex compound 1, N-{DL-[2-(hydroxyamino-carbonyl)methyl]4-methylpentanoyl}-L-3-(tertbutyl)glycyl-L-alanine,2-aminoethylamide]

- cleavage site of peptide (ADAM33 [3]): A*L
- cleavage of peptide by ADAM33 (ADAM33 [3]): cleaved
Molecule: insulin B chain: peptide substrate HLVEALYLVC; SEQ ID NO: 45 (insulin B chain peptide)

- Km (ADAM33 [1]; 200 nM enzyme, 10–500 μM substrate, room temperature): > 500 µM
Molecule: Ac-LPPVAASSLNRD-NH2 [MCF substrate peptide]
- cleavage site of MCF peptide by wild-type ADAM33 (ADAM33 [1]): between the residues corresponding to Ala-190 and Ser-191

- Ki (ADAM33 [2]): 157 ± 38 nM
Molecule: CNC(=O)[C@@H](NC(=O)[C@H](CC(C)C)[C@H](O)C(=O)NO)C(C)(C)C [Marimastat, N4-[2,2-dimethyl-1(S)-[(methylamino)carbonyl]propyl]-N1,2(S)-dihydroxy-3(R)-(2-methylpropyl) butanediamide]

- cleavage site of peptide (ADAM33 [3]): H*I
- cleavage of peptide by ADAM33 (ADAM33 [3]): cleaved
Molecule: TRANCE: peptide substrate VGSQHIRAEK; SEQ ID NO: 44 (TRANCE Peptide)
